Literature values, collected in publication PMC5177622, “Multivalent Histone and DNA Engagement by a PHD/BRD/PWWP Triple Reader Cassette Recruits ZMYND8 to K14ac-Rich Chromatin” (Cell Reports, 2016).
Where two headings read alike, the source gives them in different places.

Target: T1, human BAZ2B (UniProt: Q9UIF8 residues 2054-2168) WT (Homo sapiens, UniProt Q9UIF8)
T1 construct: residues 2054- 2168; made in house
T1 sequence (Q9UIF8 2054-2168): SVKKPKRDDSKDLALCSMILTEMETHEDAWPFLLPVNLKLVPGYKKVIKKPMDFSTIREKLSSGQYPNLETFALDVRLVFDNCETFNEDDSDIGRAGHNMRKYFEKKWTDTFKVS
Conditions: ITC
Method: Titrations were carried out in 20 mM HEPES pH 7.5 (at 25 °C), 200 mM NaCl and 15 °C while stirring at 1000 rpm. Peptides were titrated into protein solutions. Data related to Fi gur e 5. [P] [Pep] KD ΔHobs TΔS ΔG B AZ 2 B Peptide (μM) (μM) (μM) ...

[1] = ref Filippakopoulos et al., 2012

Substance	Kd (ref Philpott et al., 2011) [µM]	N (ref Philpott et al., 2011)	TΔS (ref Philpott et al., 2011) [kcal/mol]	ΔG (ref Philpott et al., 2011) [kcal/mol]	ΔHobs (ref Philpott et al., 2011) [kcal/mol]	Kd [1] [µM]	N [1]	TΔS [1] [kcal/mol]	ΔG [1] [kcal/mol]	ΔHobs [1] [kcal/mol]
H3(5-25)K14ac: histone H3 residues 5-25 peptide bearing K14ac; data from Philpott et al., 2011	6.3 ± 0.2	1.00 ± 0.007	-0.12	-6.74	-6.86 ± 0.06					
H3(9-19)K14ac: histone H3 residues 9-19 peptide bearing K14ac; data from Filippakopoulos et al., 2012						7.6 ± 0.3	0.99 ± 0.007	-2.27	-6.64	-8.91 ± 0.08
